From the domain aggregation screens of Martell et al. (2025)

Assay: soluble fraction after stress (log2 fold change); higher = more stays soluble; pooled small domains, quantitative proteomics
Conditions: stress: 50 degC
In short: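 Custom libraries of small protein domains were pooled and measured in a high-throughput format, with quantitative proteomics as the read-out. Each library was stressed at 50°C. The value is the log2 fold change in the amount of each protein that stays soluble after stress, used as a measure of aggregation propensity; higher values mean more of the protein stays soluble.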

Compared with “HMITPNQAAVTLKVSTSTLRRWSSDFEPFLSPRKGVKRLYTIEDIATLKRIQGLYKQGMNTAQVQA”, “HMDITKPKISFEPGEMVRVVDGPFNDFSGVVEEVNYEKSKVRVAVLIFGRSTPVELQFNQIEK” is higher in “soluble fraction (log2)” value: -2.1 for the first, -0.252 for the second.

“HMPSKKHARWIELEARKFMADNEDAVSDLHELRTRAANFAALKTSTLPVDQHRAIVAGFVARVNELGRRI” and “HMNEDYFTIAGYASLRGVNIDTSKANMLGRKATKLSREYGYDIGKVTDTRFGKVNSYHLDILKSIFEF” are within 0.2 log units of each other in “soluble fraction (log2)” value: -0.631 for the first, -0.477 for the second.

Compared with “HMQPRYMLIKTAILDAIERGEMKPGSQVPSENQLAQQHNVSRMTARRALSEMVDDGILMRSQGIGTFVSD”, “HMTGTVKVNSLNVYKSASLDSEVKDTLVLNTKVTIAENGQVTDGIYVWGRLQSGEGYVQMNNLTL” is lower in “soluble fraction (log2)” value: -0.0879 for the first, -0.687 for the second.

Going from “HMYVEVPNFIGVPLVKVQSELASLGLVFNKSVVYQTSPYLKGNILDQRPLPGEVVPLNTEMSFTVSSGPA” to “HMTGIELLSHREHQVYDLLTQGRTVTEIGAQLNLAPNTVSTYRARILEKTGTKNDVELALYAQRH”, the “soluble fraction (log2)” value falls from 0.453 to -0.209.

Going from “HMSEKYPPIDWNNIKTGQSVLIKDINQVVSLTKLPDSKGFAEVQMGLIKTKIKAEKLAATDKKPNK” to “HMSIELEISADGNNYRVSGLSDGEDVRVYSVSGVQVFSGKAQGGEVVIPADNWNKGIYVISAGGSSVKVL”, the “soluble fraction (log2)” value falls from 0.0917 to -0.196.

First: HMEKLLTTRQSQIFELAKRKGYWNIPREISITQLAQLTGSSKSTISVMLHAIESKIVDTFYDEI
Second: HMAPELRSDAQMRRLWALAKENGLDEVGFRAFISDATGREVESTKSLTATEAHRLIEELEAP
The “soluble fraction (log2)” value of the first is lower: -3.2 for the first, -0.388 for the second.

First: HMQELKWERNYKLVQDYIKQYGVLPSKNTKYANVSIGRWLTNQHELVKEDNLAPERFEKIKELDT
Second: HMERAYGVRVSLRLDDPFRTLLGADWSRTHWFASAEERDAALLEMSRKHEFSRPGDQPALVYEKVQN
The “soluble fraction (log2)” value of the first is higher: -0.233 for the first, -0.728 for the second.

“HMRTDTIINSGGLKINPEEVENEILKSLGDNNFFIDKIKNDKFGEEIILIALKKIKINLLIESLNLI” and “HMIYRTTSVPIDNISTQKFNLQEGWIEMNKNEVEDFIRQKNLELVVTDSNVMLDKFALNGDPNKFKVFKY” are within 0.2 log units of each other in “soluble fraction (log2)” value: 0.0394 for the first, -0.094 for the second.

Going from “HMSSSTFVGRVAVITIGEARQNSPAEARFKDRHGTTHYVMVEPMEDVVFKQGDKVLLVESAGATFKVIEPA” to “HMGQISDEETLKTVASRIIDANPDEARKYRSGKTGLLGFFVGQVMKATQGEANPKLASRIVKELLE”, the “soluble fraction (log2)” value rises from -0.585 to -0.0262.

First: HMADLTIDGVEYTKVSPTGTLTLEKVYTKNVTPADGQYYIQTGTKTVRVATDAEVAVIKAGGF
Second: HMRDRYEYLKELRLYLSPLGRTEEDRVIEYYAELIGDKIESGIPENGVLSQLGTPRELADKILAETQEY
The “soluble fraction (log2)” value of the first is higher: 0.0157 for the first, -0.35 for the second.

Compared with “HMVKLDDLTGQDKASAEAAISNLGLKYSEQQEYSDEIEEGKVTRTDPGAGSTSLKAGDTVTVYISRGPE”, “HMSSWEVLAEPIQTVMRRYGVPGAYEKLKEVTRGKSLTAEALHALIRSLDIPQADKERLLALTPAAWA” is lower in “soluble fraction (log2)” value: 0.21 for the first, -0.703 for the second.

First: HMVKPQANTIYKEYIKYRANLQNKNEFLSFSEYAKQKHNLEQMSEIMVDANLKEEMLETLKEMS
Second: HMDAINITTYKGQITLTGTKTGTLVGIYNTAGMLVKSMMSKGEKLYFDNLPSGVYIIKVGEEEPRKVQVI
The “soluble fraction (log2)” value of the first is higher: 0.0362 for the first, -0.165 for the second.

Compared with “HMGEWNSVFSVPSSVVDKHLKTASSVYVKVLLVILRNAGNRISDQQISEQLSVPVDEVQEAIRYWNAAGIF”, “HMVEQVEISILPGEYSDTISQKLLDAGLIDDKAAFSKYINDTNVDNLIQPGTFTVPKGASYEEVAKILT” is higher in “soluble fraction (log2)” value: -0.247 for the first, 0.212 for the second.

Going from “HMQSLPFSFAKRHGVLLKSINHLHGEAVYRIGANPLSLSEVQRYAGVPLKLSSITVEKFDRLLQETYEHD” to “HMIEMGNRIRTLRKRRVGSQSEFAEKLDVSVVTISRIENGMTKIDAELLIKMSEVLQVPVNIILGM”, the “soluble fraction (log2)” value falls from -1.14 to -3.22.

Going from “HMAEAAVELSQQILARLLEAGGSLPLSDKSSPEDIHRLFGVSKRTFKKAIGGLYKKGLILIHPERIELP” to “HMSYGDLTGRTVVITGASKGIGARASRVLAQAGASVVGLARSVDELTALKYDLENDGLSFDFG”, the “soluble fraction (log2)” value rises from -0.588 to ≥ 0.62.

“HMEVEADEFQQLLRSGEYVQALDRARANQDIGLRQQQIVQIARHQAASGIQAGAMGSLASLYQF” and “HMRGVNEISYTTLISEVSGGNVRDVVISGDEITGTFNDGSRFHSFSPDDPQFIERLNDQGVIINVKPL” are within 0.2 log units of each other in “soluble fraction (log2)” value: 0.0182 for the first, -0.0829 for the second.

Compared with “HMDAPHPSVVQVYFESRDRSWTYYNDRFDLHEGDLVYVEGKLEGVRGRVVEVSYNFRIKLADYKRVIAVA”, “HMRASQGRNELILSLLRGHELSILELLEGLEKQGVRVARPTLTKDLNELVSRGSVEATAPPRSKNRTYRIP” is higher in “soluble fraction (log2)” value: -3.66 for the first, -0.612 for the second.

Compared with “HMANKTISMTTLKLVIQQLSKGISRQSISAQYHISRNTIKKYEKRIKAMDMKIEDILKLSDEEISNLLQ”, “HMKRIDTILETFAKVHKHIPSKLILLGDGPELLDMRKIARSLHIEDDVLFLGKQDQVSKFYQMADLVLLL” is higher in “soluble fraction (log2)” value: -1.68 for the first, -0.0419 for the second.

Compared with “HMQKMPEMQILPNGKVKLPDFSGINMRKAAELLQYGKLRLQPYGSGTAYQQKPAAGTEVDEGTVVEIWF”, “HMQYIINFEYSGMLLREYLRGVLGLSHGTLTALKKDPLGILLNGEHATVRAVLHAGDRLTLALE” is lower in “soluble fraction (log2)” value: -0.218 for the first, -3.05 for the second.

“HMPYPSPADLARMDELIAWVKDEGRLPRDRSGQRSERSMARWLAARRREAAEGTLDPAYRDGLAQVPGWR” and “HMIGIRLKELVLKNQSAWVGLRVSELDISRKTMIVMIRRGDKMLIPNGSTILRSGDVLLLYTR” are within 0.2 log units of each other in “soluble fraction (log2)” value: -0.368 for the first, -0.452 for the second.

Compared with “HMVNPHPVYRSWGLLYVEARDGDSLESIAKEFGFSVKKLAKYNEVPKDYPLEAGDIVYLEKKKK”, “HMQGEASDAQLKAIFAIARKLGITDDFEVHRKASRLAGVPEPEVLPSLKSLTYAQASAVIKALQEELE” is higher in “soluble fraction (log2)” value: -1.59 for the first, 0.084 for the second.

Going from “HMEDEVYFVPSPASRFNPWIAALASRRVPYRVEYDGAERRIAVPAGYAEKAGEELAAYERINHAWPR” to “HMAELVISVKADGTIHYQDRQLTKEALAAVLETRPEALLNLYVDEKAPFEAFVGVVDIARLKRGGHFVIST”, the “soluble fraction (log2)” value falls from -0.271 to -0.632.

Compared with “HMYLPPYMEVRAVMILDGKPMALMYIEGEGDGLIVSPGYKFDNGKGKVVSITPTKVVVLWAGTKMELG”, “HMPRNMTFAIRGEYITLDALLKAVGAADSGAQAKHRIAEGEVTVDGVVETRKTRKLRGGETVVVDDLAVVL” is higher in “soluble fraction (log2)” value: -2.14 for the first, -0.272 for the second.

First: HMNDLKVGELAKRGNVTAETVRHYTREGLLSPTRHPDNGYQLFSATDLERLHFIQRARKLGFSVAEIRDIL
Second: HMRTQEELVAEVREQMEAMGTIATLYVELYESSEERLVGGVIFEDERHYRFVYEDGLLHYEEEK
The “soluble fraction (log2)” value of the first is lower: -0.619 for the first, -0.206 for the second.

First: HMNAVITTQKAKQIALAHAGLSEADVNYVKAELENDDGVQVYDIEFYSKNIEYDYDINAVTGEIMSFDHDI
Second: HMDQNDYMLTRIRNGQMRNKVSVSMPASKIKSAIAAVLKDEGYIENFALNDSSGKPSLIVNLKYYAGQPV
The “soluble fraction (log2)” value of the first is lower: -0.47 for the first, -0.0135 for the second.

Compared with “HMGAEWTEMRVWTSTSGSKVTAEASSLTNGQVTLETKSGKRITLSIRKLVEADQKFLEAHFSK”, “HMRVLEYTADGSRLDVLLSQDGVLSRSRAAELIKGGAVTVDGRAEGKPSAKPAPGALVRVEVPE” is higher in “soluble fraction (log2)” value: -0.947 for the first, -0.01 for the second.

Going from “HMSARRHAVKHLDANQLQTRVARMLSEFGLTAKVSKDPNSNALIIDGAPEAQRIAAQLITTIDKE” to “HMIAKEDDGTAFLIDGKISSEEEFKTISKDDILEVFVYKETEIAQKKLDSINSINNTYYTSLIEILLKE”, the “soluble fraction (log2)” value falls from 0.091 to -0.127.

Going from “HMSKASLFFLFNHKDELYIVDNNHVQDVPKPRELIRRFSTIEQIREHALHLGLPIANDTARE” to “HMEAAIRNALSRVENPDETQRARIYRTAHDALIRNLENRGITDPEQVRPQVSRLKDLISVIEREYHG”, the “soluble fraction (log2)” value rises from -0.723 to -0.0521.

Going from “HMQQVDWGSVFGDFGTMFKDQLQPTIDRLRRMAQSDTFRQSSLEEQQILYSLIEKLERSGTA” to “HMEFQISLAAARVNANMTQEDTARAMKVSKTTIVNWEKGKVIPGIPEVEMMSRLYGIPQDYIFLP”, the “soluble fraction (log2)” value falls from -1.03 to -3.2.

Going from “HMTREAILDTAEELLQRRGYNAFSYHHIAVQLGIRNAAIHYHFPAKEDLGIELVSRFRIRLAE” to “HMNYVFVLNEHGVRQTSYVVGLHADTLEKTEKLAKQTYPTSTIISGDSEMQSQFISGKAYVNGEFVDP”, the “soluble fraction (log2)” value falls from -0.146 to -0.471.

Going from “HMSMDYYNILGVNRNASTGEIKKAYKRASMQHHPDRGGNSDEFIKVQQAYDTLSDNHKRQAYDNP” to “HMGRPQISDELRNAIIEVAKDNRDWGYIRIQGQLKYLGYRVSTATIGKVLKKAGLEPQPDRRRK”, the “soluble fraction (log2)” value falls from 0.0774 to -0.264.

First: HMVAGHLSEKKGYYYAVLNYKDYTGKRKSKWVSTGLPVKGNKRRAEKILADIKRDFVPEEPKR
Second: HMERLTVVPELLKRSLSEAQPLVTSARLRLEVSGGAPEDTSRAIVVGQKPPPGTRVQVGTTVIVTVQIQRP
The “soluble fraction (log2)” value of the first is lower: -0.596 for the first, -0.0498 for the second.

Going from “HMSLGSSLFHARKKSGLTQEAVAEKLGVSRQTISKWETNETLPDIRQSKGLAMLYHMTLDELIE” to “HMNSVYTPDPKELAKAIKIVTAAREAEQKGQGVIAVDGRMVDAPVVSQALRILELARLAGMEVSE”, the “soluble fraction (log2)” value rises from -0.223 to 0.0244.

Going from “HMIPDPEKVMFDGGIRLLTQAGITEGKARSILGKWKRDHETERIIAALGAAQREGAIEPVSFIERVLRN” to “HMQLTDSDFTRLYTYVKNSYGIDLSKKKQLISSRLTNMLIQQGYRDFTQYTDEIISGKNPEMVSAMLNRLT”, the “soluble fraction (log2)” value falls from -0.0153 to -0.232.

Compared with “HMSIGLEDLIEQKGVADTDLRPSGWINVGNQRIFVVTEGSYIDQNDNVIILSVDGNRVVVRKI”, “HMVADLSGVGDKDIIVDQFIYHEVLPKETIYSIVKSFNVTSEDLNKNNPFLRANGLRIGQVIRIPLKI” is lower in “soluble fraction (log2)” value: -0.747 for the first, -1.08 for the second.

First: HMDRPEPLYIVNGKEVQTLEEAFELGRTLGSAKKGTQVRLRRLLPEEGVEKYGEKGRNGVFEFMVSA
Second: HMGQHSAELKLHPQDLGQVTISMKVEDNQAQLQMVSGHGHVRAALEAALPQLRSQLADSGIQLTQSSIS
The “soluble fraction (log2)” value of the first is higher: 0.217 for the first, -0.146 for the second.

“HMNIGELINKKRTELGLTLEEVGNAVGVSKSTVKKWEDGFISNMRRDKISKLAKVLEMNPVSLITGE” and “HMGKQIKEIVEEYYDSTSKNSPVGGSWKTSLDGVDLTSPNITIWTRTKIKYVDGSESIVTPQSL” are within 0.2 log units of each other in “soluble fraction (log2)” value: 0.0389 for the first, -0.0357 for the second.

Compared with “HMAVSGRMMVYEYIRQQMREGSLLPGSVLDLPAISHKLGISNTPLRDSLIRLEAEGYLTIYPRSKVVIN”, “HMDEDTWKLYKRAYKKYYARYMKGNMSEEAFKTWAAQAARDRDAAIEQVKAALDENLKAQVIERLKEELNR” is higher in “soluble fraction (log2)” value: -2.87 for the first, -0.407 for the second.
